In this test the target is Recombinant human BAX (wild type) (human) (UniProt Q07812). The test can be described thus: SEC. A general note: In gel filtration, larger molecules generally elute earlier.

Some results are limits rather than exact numbers.

As to “Recombinant human BAX (wild type) (from UniProt Q07812-1) (natural protein)”, the share of the BAX population shifted toward oligomers is above 70%.

Values taken from PMC9004659.
